In PMC5292665, “Structural evidence for Arabidopsis glutathione transferase AtGSTF2 functioning as a transporter of small organic ligands” (FEBS Open Bio, 2016):

Biological target: the molecule itself
Assay: crystal structure; AtGSTF2 (10 mg/mL) co-crystallised with small-molecule ligands 1-4 (5 or 10 mM); four structures at 2.00-2.77 Å; dimers in the asymmetric unit

B1: Arabidopsis thaliana phi class glutathione transferase AtGSTF2 (enzyme)
chain: MAGIKVFGHPASIATRRVLIALHEKNLDFELVHVELKDGEHKKEPFLSRNPFGQVPAFEDGDLKLFESRAITQYIAHRYENQGTNLLQTDSKNISQYAIMAIGMQVEDHQFDPVASKLAFEQIFKSIYGLTTDEAVVAEEEAKLAKVLDVYEARLKEFKYLAGETFTLTDLHHIPAIQYLLGTPTKKLFTERPRVNEWVAEITKRPASEKVQ
notes: AtGSTF2, phi class glutathione transferase of Arabidopsis thaliana; no tag is named, and the protein was purified on GSH sepharose; also called phi class GST; source: E. coli Tuner (DE3) with pRARE, purified (GSH sepharose 4B, S75 Superdex gel filtration)
stoichiometry N: 2
